Experimental data as given in publication doi:10.1101/2021.05.23.445342 (bioRxiv, 2021).

Legend:
[1] = molecular target: T1, Calcineurin (human PPP3CA / PPP3R1 heterodimer) (human, UniProt Q08209 1-521; P63098 1-170); experiment: SPR; Biacore T200, 25 °C; biotin-Cys-AKAP constructs immobilised on an SA chip, Calcineurin as analyte; 10 mM PIPES pH 6.5, 150 mM NaCl, 0.05% Tween20; apparent Kd from fit of the response at the end of association vs concentration ('steady-state'); conditions: both partners purified
T1 construct: Calcineurin A subunit, human PPP3CA, from pET15b CnA CnB; Calcineurin B subunit, human PPP3R1, from pET15b CnA CnB; also called Cn; PP2B; source: E. coli BL21(DE3) or BL21 Star (DE3), purified (ammonium sulphate, Ni-NTA, Resource Q, S200 SEC)

[2] = molecular target: T1, Calcineurin (human PPP3CA / PPP3R1 …); experiment: ITC; ITC200, 25 °C; 250 µM AKAP5c or AKAP5c_(ILVF->SA) injected into 18.32 µM Calcineurin; 10 mM Tris/HCl pH 7.4, 150 mM NaCl, 5 mM DTT; 1-site model (average of two repeats) and 2-site model with fixed N = 1 (global fit); conditions: both partners purified

Kd [1] [nM] | Kd [2] [nM] | stoichiometry N [2] | Binder
~600 | – | – | Biotin-Cys-AKAP5c_(ILVF->SA) (domain or fragment, biotin (EZ-Link Maleimide-PEG2-Biotin) on the unique added N-terminal Cys, unique Cys added immediately after the GS of the thrombin or TEV site; AKAP5 (AKAP79), human, residues 300-427; all I, L, V and F residues of the three secondary sites mutated to S or A; A GS remnant of the protease site probably precedes the Cys; also called AKAP5c_(ILVF->SA) (on the SPR surface); source: E. coli BL21(DE3) or BL21 Star (DE3), purified (heat step, Ni-NTA, Resource Q), …) CVAEETKPKDTELSQESDFKENGITEEKSKSEESKRMEPIAIIITDTEISEFDVTKSKNVPKQASASAENEQVGVFANDNGFEDRTSEQYETASAETASSLVKNAAQSSAEQSANEMASDDNKINNLLQ
– | 1500 | 0.99 AKAP5c:Cn | AKAP5c_(ILVF->SA) (domain or fragment, AKAP5 (AKAP79), human, residues 300-427; all I, L, V and F residues of the three secondary sites mutated to S or A; PIAIIIT site present; Generated by gene synthesis (GeneArt); 15N-labelled for NMR, unlabelled for ITC; also called AKAP_(ILVF->SA); source: E. coli BL21(DE3) or BL21 Star (DE3), purified (heat step, Ni-NTA, Resource Q)) VAEETKPKDTELSQESDFKENGITEEKSKSEESKRMEPIAIIITDTEISEFDVTKSKNVPKQASASAENEQVGVFANDNGFEDRTSEQYETASAETASSLVKNAAQSSAEQSANEMASDDNKINNLLQ
